From PMC8796303 (ACS Central Science, 2021)

Biological target: SARS-CoV-2 spike protein (wild type) (SARS-CoV-2, ancestral (wild type, …, UniProt P0DTC2))
Assay: lateral flow strip assay

B1: REGN10933 (receptor binding domain binding antibody) (antibody, V domains shown)
VH: QVQLVESGGGLVKPGGSLRLSCAASGFTFSDYYMSWIRQAPGKGLEWVSYITYSGSTIYYADSVKGRFTISRDNAKSSLYLQMNSLRAEDTAVYYCARDRGTTMVPFDYWGQGTLVTVSS
VL: DIQMTQSPSSLSASVGDRVTITCQASQDITNYLNWYQQKPGKAPKLLIYAASNLETGVPSRFSGSGSGTDFTFTISGLQPEDIATYYCQQYDNLPLTFGGGTKVEIK
  binding result: binds
